According to patent publication US12227742B2, “Nucleic acid modifiers” (THE BROAD INSTITUTE, INC., priority 2017, dated 2025):

Assays:
[1] = tested on: target DNA; assay: SpCas9 DNA cleavage activity, mutational analysis; format: biochemical; details: 5′-NGG PAM (5′-GGGCT)
[2] = tested on: target DNA; assay: SaCas9 DNA cleavage activity, mutational analysis; format: biochemical

B1: St3Cas9: Streptococcus thermophilus CRISPR-3 Cas9 (protein, UniProt G3ECR1 1-1409, looked up)
CRISPR-associated …: MLFNKCIIISINLDFSNKEKCMTKPYSIGLDIGTNSVGWAVITDNYKVPSKKMKVLGNTSKKYIKKNLLGVLLFDSGITAEGRRLKRTARRRYTRRRNRILYLQEIFSTEMATLDDAFFQRLDDSFLVPDDKRDSKYPIFGNLVEEKVYHDEFPTIYHLRKYLADSTKKADLRLVYLALAHMIKYRGHFLIEGEFNSKNNDIQKNFQDFLDTYNAIFESDLSLENSKQLEEIVKDKISKLEKKDRILKLFPGEKNSGIFSEFLKLIVGNQADFRKCFNLDEKASLHFSKESYDEDLETLLGYIGDDYSDVFLKAKKLYDAILLSGFLTVTDNETEAPLSSAMIKRYNEHKEDLALLKEYIRNISLKTYNEVFKDDTKNGYAGYIDGKTNQEDFYVYLKNLLAEFEGADYFLEKIDREDFLRKQRTFDNGSIPYQIHLQEMRAILDKQAKFYPFLAKNKERIEKILTFRIPYYVGPLARGNSDFAWSIRKRNEKITPWNFEDVIDKESSAEAFINRMTSFDLYLPEEKVLPKHSLLYETFNVYNELTKVRFIAESMRDYQFLDSKQKKDIVRLYFKDKRKVTDKDIIEYLHAIYGYDGIELKGIEKQFNSSLSTYHDLLNIINDKEFLDDSSNEAIIEEIIHTLTIFEDREMIKQRLSKFENIFDKSVLKKLSRRHYTGWGKLSAKLINGIRDEKSGNTILDYLIDDGISNRNFMQLIHDDALSFKKKIQKAQIIGDEDKGNIKEVVKSLPGSPAIKKGILQSIKIVDELVKVMGGRKPESIVVEMARENQYTNQGKSNSQQRLKRLEKSLKELGSKILKENIPAKLSKIDNNALQNDRLYLYYLQNGKDMYTGDDLDIDRLSNYDIDHIIPQAFLKDNSIDNKVLVSSASNRGKSDDFPSLEVVKKRKTFWYQLLKSKLISQRKFDNLTKAERGGLLPEDKAGFIQRQLVETRQITKHVARLLDEKFNNKKDENNRAVRTVKIITLKSTLVSQFRKDFELYKVREINDFHHAHDAYLNAVIASALLKKYPKLEPEFVYGDYPKYNSFRERKSATEKVYFYSNIMNIFKKSISLADGRVIERPLIEVNEETGESVWNKESDLATVRRVLSYPQVNVVKKVEEQNHGLDRGKPKGLFNANLSSKPKPNSNENLVGAKEYLDPKKYGGYAGISNSFAVLVKGTIEKGAKKKITNVLEFQGISILDRINYRKDKLNFLLEKGYKDIELIIELPKYSLFELSDGSRRMLASILSTNNKRGEIHKGNQIFLSQKFVKLLYHAKRISNTINENHRKYVENHKKEFEELFYYILEFNENYVGAKKNGKLLNSAFQSWQNHSIDELCSSFIGPTGSERKGLFELTSRGSAADFEFLGVKIPRYRDYTPSSLLKDATLIHQSVTGLYETRIDLAKLGEG
B1 was tested, and the “cleavage of target DNA with 5′-NGG PAM” value [1] was “not”.

B2: SaCas9 T787A (protein, UniProt J7RUA5 1-1053, looked up, variant T787A)
CRISPR-associated …: MKRNYILGLDIGITSVGYGIIDYETRDVIDAGVRLFKEANVENNEGRRSKRGARRLKRRRRHRIQRVKKLLFDYNLLTDHSELSGINPYEARVKGLSQKLSEEEFSAALLHLAKRRGVHNVNEVEEDTGNELSTKEQISRNSKALEEKYVAELQLERLKKDGEVRGSINRFKTSDYVKEAKQLLKVQKAYHQLDQSFIDTYIDLLETRRTYYEGPGEGSPFGWKDIKEWYEMLMGHCTYFPEELRSVKYAYNADLYNALNDLNNLVITRDENEKLEYYEKFQIIENVFKQKKKPTLKQIAKEILVNEEDIKGYRVTSTGKPEFTNLKVYHDIKDITARKEIIENAELLDQIAKILTIYQSSEDIQEELTNLNSELTQEEIEQISNLKGYTGTHNLSLKAINLILDELWHTNDNQIAIFNRLKLVPKKVDLSQQKEIPTTLVDDFILSPVVKRSFIQSIKVINAIIKKYGLPNDIIIELAREKNSKDAQKMINEMQKRNRQTNERIEEIIRTTGKENAKYLIEKIKLHDMQEGKCLYSLEAIPLEDLLNNPFNYEVDHIIPRSVSFDNSFNNKVLVKQEENSKKGNRTPFQYLSSSDSKISYETFKKHILNLAKGKGRISKTKKEYLLEERDINRFSVQKDFINRNLVDTRYATRGLMNLLRSYFRVNNLDVKVKSINGGFTSFLRRKWKFKKERNKGYKHHAEDALIIANADFIFKEWKKLDKAKKVMENQMFEEKQAESMPEIETEQEYKEIFITPHQIKHIKDFKDYKYSHRVDKKPNRELINDALYSTRKDDKGNTLIVNNLNGLYDKDNDKLKKLINKSPEKLLMYHHDPQTYQKLKLIMEQYGDEKNPLYKYYEETGNYLTKYSKKDNGPVIKKIKYYGNKLNAHLDITDDYPNSRNKVVKLSLKPYRFDVYLDNGVYKFVTVKNLDVIKKENYYEVNSKCYEEAKKLKKISNQAEFIASFYNNDLIKINGELYRVIGVNNDLLNRIEVNMIDITYREYLENMNDKRPPRIIKTIASKTQSIKKYSTDILGNLYEVKSKKHPQIIKKG
B2 was tested, and the DNA cleavage activity [2] was “reduced DNA cleavage activity”.
